This note sets out measurements from patent US20260092093A1 (TJ BIOPHARMA SHANGHAI, published 2026).

Numbering of substitutions follows the chain as printed.

Holding throughout (test): cell-based or functional assay
The target in experiment [1] is T1, hIL-18 receptor (hIL-18Rα and hIL-18Rβ) (human, UniProt Q13478 19-541; O95256 20-599).
T1 sequence (looked up) 1: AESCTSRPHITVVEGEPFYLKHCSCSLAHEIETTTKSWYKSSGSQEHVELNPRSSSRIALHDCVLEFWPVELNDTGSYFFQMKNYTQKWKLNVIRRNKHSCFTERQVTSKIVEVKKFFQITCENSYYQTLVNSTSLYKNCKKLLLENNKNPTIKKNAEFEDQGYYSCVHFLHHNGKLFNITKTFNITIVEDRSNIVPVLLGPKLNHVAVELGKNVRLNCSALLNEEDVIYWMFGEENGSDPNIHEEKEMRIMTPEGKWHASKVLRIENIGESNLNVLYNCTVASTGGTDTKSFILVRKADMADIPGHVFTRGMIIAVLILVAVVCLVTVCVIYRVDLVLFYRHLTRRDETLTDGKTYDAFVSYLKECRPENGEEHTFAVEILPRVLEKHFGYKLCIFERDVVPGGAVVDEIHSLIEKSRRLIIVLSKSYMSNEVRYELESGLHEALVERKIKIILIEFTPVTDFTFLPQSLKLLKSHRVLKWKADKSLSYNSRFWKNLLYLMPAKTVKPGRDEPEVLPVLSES
T1 sequence (looked up) 2: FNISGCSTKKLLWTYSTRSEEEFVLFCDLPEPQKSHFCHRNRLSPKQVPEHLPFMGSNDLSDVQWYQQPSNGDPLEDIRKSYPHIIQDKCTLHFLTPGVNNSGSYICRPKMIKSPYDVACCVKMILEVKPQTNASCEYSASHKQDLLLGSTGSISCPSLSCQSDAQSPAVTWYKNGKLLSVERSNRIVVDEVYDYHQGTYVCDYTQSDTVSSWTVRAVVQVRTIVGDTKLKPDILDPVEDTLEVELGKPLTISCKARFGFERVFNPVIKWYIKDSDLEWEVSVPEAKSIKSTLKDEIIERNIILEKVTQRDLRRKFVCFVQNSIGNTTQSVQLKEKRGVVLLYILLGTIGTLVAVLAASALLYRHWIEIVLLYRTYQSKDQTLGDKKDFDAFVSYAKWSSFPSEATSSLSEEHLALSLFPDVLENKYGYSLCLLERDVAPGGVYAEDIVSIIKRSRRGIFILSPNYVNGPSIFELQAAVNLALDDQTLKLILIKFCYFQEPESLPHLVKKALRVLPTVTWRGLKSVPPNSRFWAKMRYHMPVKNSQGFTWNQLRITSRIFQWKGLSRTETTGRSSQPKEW

Experiment [2] concerns the target T2, hIL-18BP-hFc (human, UniProt O95998 31-194, limits assumed).
T2 sequence (looked up): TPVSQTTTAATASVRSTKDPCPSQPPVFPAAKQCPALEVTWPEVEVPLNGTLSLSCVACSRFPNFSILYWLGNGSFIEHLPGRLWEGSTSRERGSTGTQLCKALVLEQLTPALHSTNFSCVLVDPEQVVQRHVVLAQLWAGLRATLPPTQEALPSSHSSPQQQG

Experiment [3] deals with T1, hIL-18 receptor (hIL-18Rα and hIL-18Rβ). The source holds these as a separate data set.
Experiment [4] addresses T2, hIL-18BP-hFc. The source holds these as a separate data set.

B1: IL-18 variant polypeptide M11 (ligand)
chain: YFPKLRSKLSVIRNLNDQVLFIDQGNRPLFEDMTDSDCRDNAPRTIFIISMYKSSRNRGMAVTISVKCEKISTLSCENKIISFKEMNPPDGIKDTKSDIIFFQTSVPGHDNKMQFESSSYEGYFLACEKERDLFKLILKKEDELGDRSIMFTVQNED
With B1, the “EC50 (nM), hIL-18 reporter assay” value in experiment [1] is 0.13 nM. In experiment [2], the “EC50 (nM) in the Presence of 1 µg/mL hIL-18BP-hFc, hIL-18 reporter assay” value is 0.21 nM and the “EC50 Fold Change (+BP/-BP), hIL-18 reporter assay” value is 1.62 fold. In addition, the “EC50 (nM), PBMC assay (hIFNγ release)” value in experiment [3] stood at 0.044 nM. For the same molecule, in experiment [4], the “EC50 (nM) in the Presence of 1 µg/mL hIL-18BP-hFc, PBMC assay (hIFNγ release)” value (“EC50 (nM) in the Presence … (hIFNγ release)” for short) was determined as 0.068 nM and the “EC50 Fold Change (+BP/-BP), PBMC assay (hIFNγ release)” value (“EC50 Fold Change … (hIFNγ release)” below) was 1.55 fold.

B2: IL-18 variant polypeptide M12 (ligand)
chain: B1 chain with R6K, S54G, R56G, N57A, G91T, T104R
Take B2: the “EC50 (nM), hIL-18 reporter assay” value in experiment [1] was found to be 0.04 nM. In addition, in experiment [2], the “EC50 (nM) in the Presence of 1 µg/mL hIL-18BP-hFc, hIL-18 reporter assay” value is 0.03 nM and the “EC50 Fold Change (+BP/-BP), hIL-18 reporter assay” value amounted to 0.75 fold. Further, in experiment [3], the “EC50 (nM), PBMC assay (hIFNγ release)” value was determined as 0.043 nM. Moreover, in experiment [4], the “EC50 (nM) in the Presence … (hIFNγ release)” value was 0.045 nM and the “EC50 Fold Change … (hIFNγ release)” value turned out to be 1.05 fold.

B3: IL-18 variant polypeptide M17 (ligand)
chain: B1 chain with S54L, R56T, N57A, T104R
Regarding B3, the “EC50 (nM), hIL-18 reporter assay” value in experiment [1] was 0.41 nM. For the same molecule, in experiment [2], the “EC50 (nM) in the Presence of 1 µg/mL hIL-18BP-hFc, hIL-18 reporter assay” value was 0.32 nM and the “EC50 Fold Change (+BP/-BP), hIL-18 reporter assay” value amounted to 0.78 fold. Besides, the “EC50 (nM), PBMC assay (hIFNγ release)” value in experiment [3] is 0.13 nM. Besides, in experiment [4], the “EC50 (nM) in the Presence … (hIFNγ release)” value was 0.13 nM and the “EC50 Fold Change … (hIFNγ release)” value is 1 fold.

B4: IL-18 variant polypeptide M24 (ligand)
chain: B1 chain with S54Y, R56T, N57S, G91N, T104R
As for B4, the “EC50 (nM), hIL-18 reporter assay” value in experiment [1] worked out at 0.99 nM. For the same molecule, in experiment [2], the “EC50 (nM) in the Presence of 1 µg/mL hIL-18BP-hFc, hIL-18 reporter assay” value is 1.99 nM and the “EC50 Fold Change (+BP/-BP), hIL-18 reporter assay” value stood at 2.01 fold. Besides, the “EC50 (nM), PBMC assay (hIFNγ release)” value in experiment [3] amounted to 0.054 nM. Further, in experiment [4], the “EC50 (nM) in the Presence … (hIFNγ release)” value came out at 0.08 nM and the “EC50 Fold Change … (hIFNγ release)” value is 1.48 fold.

B5: IL-18 variant polypeptide M15 (ligand)
chain: B1 chain with R56Y, N57T, T104R
For B5, in experiment [1], the “EC50 (nM), hIL-18 reporter assay” value was 0.13 nM. In experiment [2], the “EC50 (nM) in the Presence of 1 µg/mL hIL-18BP-hFc, hIL-18 reporter assay” value stood at 0.12 nM and the “EC50 Fold Change (+BP/-BP), hIL-18 reporter assay” value amounted to 0.92 fold. Further, the “EC50 (nM), PBMC assay (hIFNγ release)” value in experiment [3] is 0.049 nM. For the same molecule, in experiment [4], the “EC50 (nM) in the Presence … (hIFNγ release)” value was determined as 0.036 nM and the “EC50 Fold Change … (hIFNγ release)” value was 0.73 fold.

B6: IL-18 variant polypeptide M13 (ligand)
chain: B1 chain with R6K, S54Q, R56I, N57W, G91N, T104R
In the case of B6, in experiment [1], the “EC50 (nM), hIL-18 reporter assay” value amounted to 0.035 nM. Besides, in experiment [2], the “EC50 (nM) in the Presence of 1 µg/mL hIL-18BP-hFc, hIL-18 reporter assay” value was 0.026 nM and the “EC50 Fold Change (+BP/-BP), hIL-18 reporter assay” value is 0.74 fold. In addition, the “EC50 (nM), PBMC assay (hIFNγ release)” value in experiment [3] stood at 0.02 nM. Also, in experiment [4], the “EC50 (nM) in the Presence … (hIFNγ release)” value came out at 0.025 nM and the “EC50 Fold Change … (hIFNγ release)” value turned out to be 1.25 fold.

B7: IL-18 variant polypeptide M21 (ligand)
chain: B1 chain with R56S, N57T, T104S
Regarding B7, in experiment [1], the “EC50 (nM), hIL-18 reporter assay” value turned out to be 1.9 nM. Also, in experiment [2], the “EC50 (nM) in the Presence of 1 µg/mL hIL-18BP-hFc, hIL-18 reporter assay” value came to 2.1 nM and the “EC50 Fold Change (+BP/-BP), hIL-18 reporter assay” value was found to be 1.11 fold. The “EC50 (nM), PBMC assay (hIFNγ release)” value in experiment [3] was 0.045 nM. Moreover, in experiment [4], the “EC50 (nM) in the Presence … (hIFNγ release)” value amounted to 0.049 nM and the “EC50 Fold Change … (hIFNγ release)” value is 1.09 fold.
